Test results taken from the nanobody polyreactivity screen of Harvey et al. (2022).

Test: yeast display, Sf9 membrane polyspecificity reagent, FACS + sequencing; frameworks hold sequencing errors
How it was run: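 A nanobody's polyreactivity label depends on the gate it was sorted from. Yeast display cells were stained with 10% biotinylated, detergent-solubilized Sf9 membrane reagent for 1 hour at 4 °C, enriched on streptavidin microbeads and sorted by FACS. The low and high (top ~1%) gates were set on anti-HA fluorescence for expression and streptavidin fluorescence for reagent binding.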

Sequence | polyreactivity (PSR sort gate)
QVQLVESGGGLVQAGGSLRLSCDASGSTFASYAMGWYRQAPGKERELVAAIRWSGGTTYYADSVKGRFTISRDNAKNTVYLLMNSLKTEDTAVYYCNADRYYLYYYWGQGTQVTVSS | low polyreactivity
QVQLVESGGGLVQAGGSLRLSCDASGSTFPKYAMGWYRQAHGKERELVAAITSSGGRTFYADSVKGRFTISRDNAKNTVYLQMNSLKPEDTAVYYCAAYYYSWSGAFIYDYWGQGTQVTVSS | high polyreactivity
QVQLVESGGGLVQAGGSLRLSCDASGSTFSYYAMGGYRQAPGKERELVAAISGRGGSTYYADSVKGRFTISRDNAKNTVYLQMNSLKPEDTAVYYCAKGRLYTAYGLYSWGQGTQVTVSS | high polyreactivity
QVQLVESGGGLVQAGGSLRLSCDASGSTFVGNSMGWYRPAPGKERELVAALTQSGGNTFYADSVKGRFTISRDYAKNTVYLQINSLKPEDTAVYYCAATVSNGVKLDGPARVDLDYWGQGTQVTVSS | low polyreactivity
QVQLVESGGGLVQAGGSLRLSCDASGSTFWYYAMGWYRQAPGKERELVASITSSGSTNYADSVKGRFTISRDNAKNTVYLQMNSLKPEDTAVYYCNRVSKYERLSRYGYYGYYYWGQGTQVTVSS | high polyreactivity
QVQLVESGGGLVQAGGSLRLSCDASGSTFYYYAMGWYRQAPGKERELVDSISFSGGSTYYADSVKGRFTISRDNAKNTVYLQMNSLKPEDTAVYYCGYYYWGQGTQVTVSS | low polyreactivity
QVQLVESGGGLVQAGGSLRLSCDASGSTSPGYAMGWYRQAPGKERELVAAITFRGTRTYYADSVKGRFTISRDNAKNTVYLQINSLKPEDTAVYYCNVVGYGPNRGRVDYWGQGTQVTVSS | high polyreactivity
QVQLVESGGGLVQAGGSLRLSCDASGTTFVFNAMGWYRHAPGKERELVAAISFSSDTTHYADSVKGRFTISRDNAKNTVYLQMNSLKPEDTAVYYCAADFVGYARNWYYFCGQGTQVTVSS | low polyreactivity
QVQLVESGGGLVQAGGSLRLSCDASGYIFNYAMGWYRQAPGKERELVPAISRRGGSTYYADSVKGRFTISRDNAKNTVYLQMNSLKPEDTSVYYCAADRFRRLHYWTYDYWGKGTQVTVSS | high polyreactivity
QVQLVESGGGLVQAGGSLRLSCDATGSIISYNTMGWYRQAPGKERELVAAITWGGRTYYADSVKGRFTISRDNAKNTVYLQMNSLKPEDTAVYYCAKRIRGGAPTYDYWGQRTQVTVSS | low polyreactivity
QVQLVESGGGLVQAGGSLRLSCDAYGSTFERYVMGWYCQRLGKKGSWLPVLNHNGGSTYYADSVKGRFTISRDNAKNTVYLQMNSLKPEVTAVYYCAPSFRTVLDDGYWGQGSQVTVSS | low polyreactivity
QVQLVESGGGLVQAGGSLRLSCDGSGSIISAYTMEWYRQAPGKEREYVAAIRWSGDSTYYSDSVKGRFTISRDNAKNTVYLQMNSLKPEDTAVYYCAARDLWFPRYSSRYYYWGQGTQVTVSS | high polyreactivity
QVQLVESGGGLVQAGGSLRLSCGAAGSIFAPYALGWYRQAPGKERELVAAISWTGGRTYYADSVKGRFTISRDNAKNTVYLQRNSLKPEDTAVYYCAAAYYGTRPYGYWGQGSQVTVSS | high polyreactivity
QVQLVESGGGLVQAGGSLRLSCGASGIIFASNGMGWYRQAPGKERELVAAISSGGSTNYADSVKGRFTISRDNAKNTVYLQMNSLKPEDTSVYYCAADRWYREYDYWGQATQVTVSS | low polyreactivity
QVQLVESGGGLVQAGGSLRLSCGASGITFVYYTMGWYRQAPGKERELVAAISKNGGSTYYADSVKGRFTISRDNAKNTVYLQMNSLKPEYTAFSYCAAEEGYRWVRYNYWGQGTQVTVSS | high polyreactivity
QVQLVESGGGLVQAGGSLRLSCGASGRIFNSNAMGWYRQAPGKERELVAASSWSGGTSYYADSVKGRFTISRDNAKNTVYLQLNSLKPEDTAVYYCNAVGLHWWPGDYWGQGTQVTVSS | low polyreactivity
QVQLVESGGGLVQAGGSLRLSCGASGRTFPVYAMGWYRQAPGKERELVADISDGGSTNYADSVKGRFTISRDNAKNTVDLQMNSLKPEDTAVYYCNATTFAFSPSLKGAYGYWGQGTQVTVST | low polyreactivity
QVQLVESGGGLVQAGGSLRLSCGASGRTFQFYAMGWYRQAPGKERELVAAISRSSGSTTYADSVKGRFTISRDNAKNTVYLQMNSLKPEDTAVYYCAARRKGKARVPQYDYWGQGTQVTVSS | high polyreactivity
QVQLVESGGGLVQAGGSLRLSCGASGRTFRRNAMGRYRQAPGKERELVAAIRWSSGSTYYADSVKGRFTISRDNAKNTVYLQMNSLKPEDTAVYYCAKRQWGGRESFDYWGQGTQVTVSS | low polyreactivity
QVQLVESGGGLVQAGGSLRLSCGASGSTFYGYAMGWYRQAPGTEREVVAAISSGGSTYYADSVKGRFTISRDNAKNTVYLQMNSLKPEDTAVYYCDAVGYFWITNHKDYYWGQGTQVTVSS | high polyreactivity
QVQLVESGGGLVQAGGSLRLSCGASGSTFYYYTMGWYRQAPGKERELVAAISFIGGSTYYADSVKGRFTISRDNAKNTVYLQMNSLKPEDTAVYYCAAEFYGLVSLSFSYDYWGQGTQVTVSS | low polyreactivity
QVQLVESGGGLVQAGGSLRLSCHASGSTFTFNAMGWYRQAPGKERELVADITSGGRTNYADSVKGRFTISRDNAKNTVYLQMNSLKPEDTAVYYCAARWSAHEYPGYDSWGQGTQVTVSS | low polyreactivity

Sequence | polyreactivity (PSR sort gate)
QVQLVESGGGLVQAGGSLRLSCPASGFTFVTNAMGWYRQAPGKERELVAAISKSGDRTYYADSVKGRFTISRDNAKNTVYLQMNSLKPEDTAVYYCAAGNSNWGQGTQVTVSS | high polyreactivity
QVQLVESGGGLVQAGGSLRLSCPASGLIFRSYAMGRYRQAPGKERELVARISIRGGSTYYADSVKGRFTISRDNAKNTVYLQMNSLKPEDTAVYYCAAVGYLGGYRYDYWGQGTQVTVSS | high polyreactivity
QVQLVESGGGLVQAGGSLRLSCPASGRIFTGYAMGWYRQSPGKERELVASISDSGASTYYADSVKGRFTISRDNAKNTVYLQMNSLKPEDTAVYYCAADWTLDTSYGYYADDFWGQGTQVTVSS | low polyreactivity
QVQLVESGGGLVQAGGSLRLSCPASGRTFRWYAMGWYRQAPGKERELVAAISQSGGSTYYAVSVKGRFTISRDNAKNTVYLQMNSLKPEDTAVYYFNAYPPYGGYAYGRGDYWGQGTQVTVSS | high polyreactivity
QVQLVESGGGLVQAGGSLRLSCPASGRTIEGYAMGWYRQATGKERELVAAISRRGGSTYYADSVKGRFTISRDNAKNTVFLQMNSLKPEDTAVYYCAARDASTGAVRYYYWGQGTQVTVSS | high polyreactivity
QVQLVESGGGLVQAGGSLRLSCPASGRTMVLNMGCYRHAPGKERELVATINSGGSTYYADSVKGRFTISRDNAKNTVYLQMNSLKPEDTAVYYCAVLSSDGKFDYWGQGTQVTVSS | low polyreactivity
QVQLVESGGGLVQAGGSLRLSCPASGSIFDYYAMGWYRQPPGKEREMVAAINISGGDTYYADSVKGRFTISRDNAKNTVYLQMNSLKPEDTAVYYCAADWVTWWFSRVGWDYGYWGQGTQVTVSS | low polyreactivity
QVQLVESGGGLVQAGGSLRLSCPASGSIFNKNAMGWYRQAPGKERELVAAISSGGSTYYADSVKGRFTISRDNAKNTVYLQMNSLKPEDTAVYYCARGASFYQKFYYWGQGTQVTVSS | high polyreactivity
QVQLVESGGGLVQAGGSLRLSCPASGSIFPHYAMGWYRQAPGKERELVAAISRSGTSTYYADSVKGRFTISRDNAKNTVYLQMNSLKPEDTAVYYCNAYQVYTRTYGYWGQGTQVTVSS | high polyreactivity
QVQLVESGGGLVQAGGSLRLSCPASGSIFSLNAMGWYRQAPGKERELVAGISWSGGSTYYADSVKGRFTISRDNAKNTVYLQMNSLKPEDTAVYYCAARRYYPYISSGPYYYWGQGTQVTVSS | high polyreactivity
QVQLVESGGGLVQAGGSLRLSCPASGSILYYYTMGWYRQAPGKERELVAAITYSGGSSYYADSVKGRFTISRDNAKNTVYLQMNSLKPEDTAVYYCAAAHSNRGVRKWEPLYFWGQRTQVTVSS | low polyreactivity
QVQLVESGGGLVQAGGSLRLSCPASGSTFARNAMGWSRQAPGKEREFVASIRWGGGSTYYADSVKARFTISRDNAKNTVYLQMNSLKAEDTAVYYCATRGWSKHLFGGYTQYYYWGQGTQVTVSS | high polyreactivity
QVQLVESGGGLVQAGGSLRLSCPASGSTFVKNAMGWYRQAPGKERELVAAITARGGSTFYADSVKGRFTISRDNAKNTVYLQMISLTPEDTSVYYCADNGPRTYRLKDDYWGQGTQVTVSS | high polyreactivity
QVQLVESGGGLVQAGGSLRLSCPAYGSTFGEYAMGWYRQKPGKERELVATITSAGSTYYADSVKGRFTISRDNAKNTVYLLMNSLKPEDTAVYYCAVDPISQGHMDYWGQGTQVTVSS | low polyreactivity
QVQLVESGGGLVQAGGSLRLSCSASGFIFWYNAMGWYRQAPGKERELVAAITTAGSTNYADSVKGRFTISRDNAKNTVYLQMNSLKPEDTAVFYCNKVQLRNRYPYRYGFGDVGYWGQGTQVTVSS | low polyreactivity
QVQLVESGGGLVQAGGSLRLSCSASGFTFFYYAMGWYRQAPGKERELVASISSGGSSTYYADSVKGRFTISRDNAKNTVYLQMNSLKPEDTAVYYFAATSRYRGSWYYYWGQGTQVTVSS | high polyreactivity
QVQLVESGGGLVQAGGSLRLSCSASGFTFRVNALGWYRQAPGKERELVAAITYSGGSTYYADSVKGRFTISRDNAKNTVYLQMNSLNPEDTAVYYCAAGYFFPRLRFRNYAYGYWGQGTQVTVST | high polyreactivity
QVQLVESGGGLVQAGGSLRLSCSASGFTFRWYTMGWYTQSPGNERELVAAINYSGGSTYYADSVKGRFTISRDNAKNTVYLQMNSLKPEDTAVYYCAAQIYFPGRRYDYWGQGTQVTVSS | high polyreactivity
QVQLVESGGGLVQAGGSLRLSCSASGFTSRKNAMGWYRQAPGKERELVAAITQSSGRTYYADSVKGRFTISRDNAKNTVYLQMNSLKPEDTAVYYCAARRGGEDDYWGQGTQVTVSS | low polyreactivity
QVQLVESGGGLVQAGGSLRLSCSASGIIFDSYVMGWYRQAPGKERELVAAISFRGGSTYYADSVKGRFTISRDNAKNTVYLQMNSLKPEDTAVYYCAAEGRGYTEYYWGQGTQVTVSS | high polyreactivity
QVQLVESGGGLVQAGGSLRLSCSASGIIFGGNAMGWYRQAPGKERELVAGISSRGGSTYYADSVKGRFTISRDNAKNTVYLQMNSLKPEDTAVYYCAAVSSRRPGYEYYYWGQGTQVTVSS | high polyreactivity
